{"source": "patent US6534281", "key": {"[1]": {"biological_target": "human proinsulin (human) (UniProt P01308)", "sequence (P01308 25-110)": "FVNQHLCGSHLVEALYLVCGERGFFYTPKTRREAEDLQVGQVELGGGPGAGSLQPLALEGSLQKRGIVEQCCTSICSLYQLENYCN", "assay": "sandwich immunoassay, one-step, against C-peptide calibration; proinsulin 50 ng/ml; PEP-001 on particles, labeled antibody 9103"}, "[2]": {"biological_target": "modified C-peptide (human C-peptide having Arg-Arg bound to its N-terminal and Lys-Arg bound to its C-terminal) (human)", "sequence (peptide, as listed by the source)": "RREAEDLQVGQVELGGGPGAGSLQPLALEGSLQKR", "assay": "sandwich immunoassay, one-step, against C-peptide calibration; modified C-peptide 5 ng/ml; PEP-001 on particles, labeled antibody CPT-3F-11"}, "[3]": {"biological_target": "human proinsulin (human) (UniProt P01308)", "assay": "sandwich immunoassay, one-step, against C-peptide calibration; proinsulin 200 ng/ml; PEP-001 on particles, labeled antibody CPT-3-F11"}, "[4]": {"biological_target": "modified C-peptide (human C-peptide having Arg-Arg bound to its N-terminal and Lys-Arg bound to its C-terminal) (human)", "assay": "sandwich immunoassay, one-step, against C-peptide calibration; modified C-peptide 5 ng/ml; PEP-001 on particles, labeled antibody 9103"}, "[5]": {"biological_target": "human C-peptide (human)", "sequence (peptide, as listed by the source)": "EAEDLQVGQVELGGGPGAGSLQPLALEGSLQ", "assay": "sandwich immunoassay, one-step; PEP-001 on particles, labeled antibody 9103"}, "[6]": {"biological_target": "human proinsulin (human) (UniProt P01308)", "assay": "sandwich immunoassay, two-step, against C-peptide calibration; proinsulin 50 ng/ml; PEP-001 on particles, labeled antibody CPT-3-F11"}, "[7]": {"biological_target": "human proinsulin (human) (UniProt P01308)", "assay": "sandwich immunoassay, two-step, against C-peptide calibration; proinsulin 200 ng/ml; PEP-001 on particles, labeled antibody 9103"}, "[8]": {"biological_target": "human C-peptide (human)", "assay": "sandwich immunoassay, one-step; PEP-001 on particles, labeled antibody CPT-3F-11"}, "[9]": {"biological_target": "modified C-peptide (human C-peptide having Arg-Arg bound to its N-terminal and Lys-Arg bound to its C-terminal) (human)", "assay": "sandwich immunoassay, two-step, against C-peptide calibration; modified C-peptide 5 ng/ml; PEP-001 on particles, labeled antibody 9103"}, "[10]": {"biological_target": "human proinsulin (human) (UniProt P01308)", "assay": "sandwich immunoassay, two-step, against C-peptide calibration; proinsulin 400 ng/ml; PEP-001 on particles, labeled antibody CPT-3-F11"}, "[11]": {"biological_target": "human proinsulin (human) (UniProt P01308)", "assay": "sandwich immunoassay, one-step, against C-peptide calibration; proinsulin 400 ng/ml; PEP-001 on particles, labeled antibody CPT-3-F11"}, "[12]": {"biological_target": "human C-peptide (human)", "assay": "sandwich immunoassay, two-step; PEP-001 on particles, labeled antibody 9103"}, "[13]": {"biological_target": "human proinsulin (human) (UniProt P01308)", "assay": "sandwich immunoassay, two-step, against C-peptide calibration; proinsulin 200 ng/ml; PEP-001 on particles, labeled antibody CPT-3-F11"}, "[14]": {"biological_target": "human proinsulin (human) (UniProt P01308)", "assay": "sandwich immunoassay, two-step, against C-peptide calibration; proinsulin 50 ng/ml; PEP-001 on particles, labeled antibody 9103"}, "[15]": {"biological_target": "human proinsulin (human) (UniProt P01308)", "assay": "sandwich immunoassay, one-step, against C-peptide calibration; proinsulin 200 ng/ml; PEP-001 on particles, labeled antibody 9103"}, "[16]": {"biological_target": "human C-peptide (human)", "assay": "sandwich immunoassay, two-step; PEP-001 on particles, labeled antibody CPT-3F-11"}, "[17]": {"biological_target": "human proinsulin (human) (UniProt P01308)", "assay": "sandwich immunoassay, one-step, against C-peptide calibration; proinsulin 50 ng/ml; PEP-001 on particles, labeled antibody CPT-3-F11"}, "[18]": {"biological_target": "modified C-peptide (human C-peptide having Arg-Arg bound to its N-terminal and Lys-Arg bound to its C-terminal) (human)", "assay": "sandwich immunoassay, two-step, against C-peptide calibration; modified C-peptide 5 ng/ml; PEP-001 on particles, labeled antibody CPT-3F-11"}, "[19]": {"biological_target": "human proinsulin (human) (UniProt P01308)", "assay": "sandwich immunoassay, two-step, against C-peptide calibration; proinsulin 400 ng/ml; PEP-001 on particles, labeled antibody 9103"}, "[20]": {"biological_target": "human proinsulin (human) (UniProt P01308)", "assay": "sandwich immunoassay, one-step, against C-peptide calibration; proinsulin 400 ng/ml; PEP-001 on particles, labeled antibody 9103"}}}
{"substance": "anti-human C-peptide monoclonal antibody PEP-001 (Dako)", "values": [{"measurement": "Cross-reactivity (%) to Human Proinsulin", "setting": "[1]", "value": "> 120", "unit": "%"}, {"measurement": "Cross-reactivity (%) to Modified C-peptide", "setting": "[2]", "value": 98.5, "unit": "%"}, {"measurement": "Cross-reactivity (%) to Human Proinsulin", "setting": "[3]", "value": "> 30", "unit": "%"}, {"measurement": "Cross-reactivity (%) to Modified C-peptide", "setting": "[4]", "value": 35, "unit": "%"}, {"measurement": "2S/N value", "setting": "[5]", "value": 0.781, "unit": "ng/mL"}, {"measurement": "Cross-reactivity (%) to Human Proinsulin", "setting": "[6]", "value": "> 120", "unit": "%"}, {"measurement": "Cross-reactivity (%) to Human Proinsulin", "setting": "[7]", "value": "> 30", "unit": "%"}, {"measurement": "2S/N value", "setting": "[8]", "value": 0.191, "unit": "ng/mL"}, {"measurement": "Cross-reactivity (%) to Modified C-peptide", "setting": "[9]", "value": 38.3, "unit": "%"}, {"measurement": "Cross-reactivity (%) to Human Proinsulin", "setting": "[10]", "value": "> 15", "unit": "%"}, {"measurement": "Cross-reactivity (%) to Human Proinsulin", "setting": "[11]", "value": "> 15", "unit": "%"}, {"measurement": "2S/N value", "setting": "[12]", "value": 0.591, "unit": "ng/mL"}, {"measurement": "Cross-reactivity (%) to Human Proinsulin", "setting": "[13]", "value": "> 30", "unit": "%"}, {"measurement": "Cross-reactivity (%) to Human Proinsulin", "setting": "[14]", "value": "> 120", "unit": "%"}, {"measurement": "Cross-reactivity (%) to Human Proinsulin", "setting": "[15]", "value": "> 30", "unit": "%"}, {"measurement": "2S/N value", "setting": "[16]", "value": 0.271, "unit": "ng/mL"}, {"measurement": "Cross-reactivity (%) to Human Proinsulin", "setting": "[17]", "value": "> 120", "unit": "%"}, {"measurement": "Cross-reactivity (%) to Modified C-peptide", "setting": "[18]", "value": 80, "unit": "%"}, {"measurement": "Cross-reactivity (%) to Human Proinsulin", "setting": "[19]", "value": "> 15", "unit": "%"}, {"measurement": "Cross-reactivity (%) to Human Proinsulin", "setting": "[20]", "value": "> 15", "unit": "%"}]}
